Data taken from PMC9482650, “Quantitative fragmentomics allow affinity mapping of interactomes” (Nature Communications, 2022).

What was measured:
Test in all cases: holdup assay
Design in all cases: key: below the threshold = too weak to quantify, mostly under pKd 3.1 to 4
LNX1_1, Q8TBB1 = biological target: LNX1_1, Q8TBB1
MPDZ_10, O75970 = biological target: T1, MPDZ_10, O75970
T1 sequence (O75970 1624-1722, limits assumed, looked up): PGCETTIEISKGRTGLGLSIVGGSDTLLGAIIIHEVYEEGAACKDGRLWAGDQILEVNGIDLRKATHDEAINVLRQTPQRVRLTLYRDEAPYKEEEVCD

ARHGAP21, Q5T5U3 = biological target: T2, ARHGAP21, Q5T5U3
T2 sequence (Q5T5U3 45-169, limits assumed, looked up): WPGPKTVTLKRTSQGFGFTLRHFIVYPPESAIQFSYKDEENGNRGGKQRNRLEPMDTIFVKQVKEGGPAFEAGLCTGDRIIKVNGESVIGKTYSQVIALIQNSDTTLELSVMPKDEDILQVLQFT

MPP2, Q14168 = biological target: T3, MPP2, Q14168
T3 sequence (Q14168 180-250, limits assumed, looked up): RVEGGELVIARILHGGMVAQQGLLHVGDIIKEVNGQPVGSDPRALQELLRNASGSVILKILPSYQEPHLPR

PCLO, Q9Y6V0 = biological target: T4, PCLO, Q9Y6V0
T4 sequence (Q9Y6V0 4491-4600, limits assumed, looked up): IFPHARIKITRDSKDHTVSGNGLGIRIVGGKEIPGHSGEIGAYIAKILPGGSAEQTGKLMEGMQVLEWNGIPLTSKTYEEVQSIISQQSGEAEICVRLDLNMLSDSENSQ

GRIP1_7, Q9Y3R0 = biological target: T5, GRIP1_7, Q9Y3R0
T5 sequence (Q9Y3R0 999-1096, limits assumed, looked up): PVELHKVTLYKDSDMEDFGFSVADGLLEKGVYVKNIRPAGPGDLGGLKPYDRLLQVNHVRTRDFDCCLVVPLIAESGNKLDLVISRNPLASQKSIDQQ

GRIP2_4, Q9C0E4 = biological target: GRIP2_4, Q9C0E4
Chain of GRIP2_4, Q9C0E4 (Q9C0E4 446-548): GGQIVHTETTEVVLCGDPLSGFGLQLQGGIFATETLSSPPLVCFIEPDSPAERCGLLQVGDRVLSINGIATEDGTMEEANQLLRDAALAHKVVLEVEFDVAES

MPP7, Q5T2T1 = biological target: T6, MPP7, Q5T2T1
T6 sequence (Q5T2T1 134-230, limits assumed, looked up): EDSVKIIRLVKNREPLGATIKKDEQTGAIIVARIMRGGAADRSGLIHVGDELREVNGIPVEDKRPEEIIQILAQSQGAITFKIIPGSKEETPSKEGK

SCRIB_2, Q14160 = biological target: SCRIB_2, Q14160
Chain of SCRIB_2, Q14160 (Q14160 857-960): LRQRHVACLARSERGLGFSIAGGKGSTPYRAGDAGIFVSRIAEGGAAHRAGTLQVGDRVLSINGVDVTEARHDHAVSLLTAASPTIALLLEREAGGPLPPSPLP

NHERF4_2, Q86UT5 = biological target: NHERF4_2, Q86UT5
Chain of NHERF4_2, Q86UT5 (Q86UT5 220-308): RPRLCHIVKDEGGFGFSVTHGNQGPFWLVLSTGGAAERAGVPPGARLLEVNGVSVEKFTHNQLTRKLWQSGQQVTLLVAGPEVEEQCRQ

MAGI2_3, Q86UL8 = biological target: MAGI2_3, Q86UL8
Chain of MAGI2_3, Q86UL8 (Q86UL8 600-682): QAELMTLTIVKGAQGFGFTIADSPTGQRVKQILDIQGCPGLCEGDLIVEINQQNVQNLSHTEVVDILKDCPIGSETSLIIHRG

HTRA4, P83105 = biological target: T7, HTRA4, P83105
T7 sequence (P83105 378-476, limits assumed, looked up): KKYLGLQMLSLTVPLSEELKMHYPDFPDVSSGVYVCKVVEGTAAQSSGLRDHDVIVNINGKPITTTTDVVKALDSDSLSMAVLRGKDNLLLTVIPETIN

DLG1_3, Q12959 = biological target: DLG1_3, Q12959
MAGI3_2, Q5TCQ9 = biological target: MAGI3_2, Q5TCQ9
Chain of MAGI3_2, Q5TCQ9 (Q5TCQ9 398-503): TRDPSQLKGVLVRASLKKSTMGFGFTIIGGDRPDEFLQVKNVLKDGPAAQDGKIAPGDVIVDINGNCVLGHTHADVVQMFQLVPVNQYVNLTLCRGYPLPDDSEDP

MPDZ_5, O75970 = biological target: T8, MPDZ_5, O75970
T8 sequence (O75970 695-796, limits assumed, looked up): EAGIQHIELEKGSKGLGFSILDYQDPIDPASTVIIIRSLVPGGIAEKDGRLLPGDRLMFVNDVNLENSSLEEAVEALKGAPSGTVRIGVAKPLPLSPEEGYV

DLG1_1, Q12959 = biological target: DLG1_1, Q12959
APBA1_2, Q02410 = biological target: T9, APBA1_2, Q02410
T9 sequence (Q02410 742-832, limits assumed, looked up): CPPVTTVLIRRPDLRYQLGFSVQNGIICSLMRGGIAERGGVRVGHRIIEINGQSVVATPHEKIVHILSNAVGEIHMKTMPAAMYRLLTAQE

SNTG2, Q9NY99 = biological target: T10, SNTG2, Q9NY99
T10 sequence (Q9NY99 68-166, limits assumed, looked up): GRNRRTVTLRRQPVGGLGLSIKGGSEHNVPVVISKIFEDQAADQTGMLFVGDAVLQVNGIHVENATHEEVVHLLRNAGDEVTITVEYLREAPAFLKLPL

IL16_1, Q14005 = biological target: IL16_1, Q14005
Chain of IL16_1, Q14005 (Q14005 210-306): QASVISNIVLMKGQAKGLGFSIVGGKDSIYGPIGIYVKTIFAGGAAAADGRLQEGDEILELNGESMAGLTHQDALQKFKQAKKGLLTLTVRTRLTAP

APBA2_2, Q99767 = biological target: T11, APBA2_2, Q99767
T11 sequence (Q99767 654-744, limits assumed, looked up): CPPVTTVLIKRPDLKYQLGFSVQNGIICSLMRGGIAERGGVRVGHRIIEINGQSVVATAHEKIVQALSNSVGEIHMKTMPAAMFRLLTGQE

GRIP2_5, Q9C0E4 = biological target: GRIP2_5, Q9C0E4
Chain of GRIP2_5, Q9C0E4 (Q9C0E4 544-642): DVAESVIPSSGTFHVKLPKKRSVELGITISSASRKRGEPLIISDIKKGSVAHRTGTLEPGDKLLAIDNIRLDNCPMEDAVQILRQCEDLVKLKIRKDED

NHERF2_2, Q15599 = biological target: NHERF2_2, Q15599
Chain of NHERF2_2, Q15599 (Q15599 142-238): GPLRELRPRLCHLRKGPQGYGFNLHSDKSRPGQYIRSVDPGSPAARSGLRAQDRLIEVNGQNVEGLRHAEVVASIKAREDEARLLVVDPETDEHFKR

MPP6, Q9NZW5 = biological target: T12, MPP6, Q9NZW5
T12 sequence (Q9NZW5 125-219, limits assumed, looked up): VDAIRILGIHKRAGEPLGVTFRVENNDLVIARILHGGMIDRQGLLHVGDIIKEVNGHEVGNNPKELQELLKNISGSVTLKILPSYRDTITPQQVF

MAGI2_6, Q86UL8 = biological target: MAGI2_6, Q86UL8
Chain of MAGI2_6, Q86UL8 (Q86UL8 1141-1229): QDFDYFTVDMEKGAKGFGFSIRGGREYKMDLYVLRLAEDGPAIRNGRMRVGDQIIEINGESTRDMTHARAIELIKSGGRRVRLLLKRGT

LAP2, Q96RT1 = biological target: LAP2, Q96RT1
Chain of LAP2, Q96RT1 (Q96RT1 other isoform, or with tags, fused parts or gaps): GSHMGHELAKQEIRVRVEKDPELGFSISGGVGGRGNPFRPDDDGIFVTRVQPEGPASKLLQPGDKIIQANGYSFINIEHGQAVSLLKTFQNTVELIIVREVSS

GRIP2_3, Q9C0E4 = biological target: GRIP2_3, Q9C0E4
Chain of GRIP2_3, Q9C0E4 (Q9C0E4 238-339): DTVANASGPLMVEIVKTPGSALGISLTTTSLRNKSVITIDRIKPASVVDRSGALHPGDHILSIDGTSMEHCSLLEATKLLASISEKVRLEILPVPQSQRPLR

[1] = plain residues with an end cap or a label only (N-terminal biotin on a linker: ado-ado)
[2] = modified: acetyl on K at position -1 from the C-terminal residue

Chain of LNX1_1, Q8TBB1 (Q8TBB1 261-371): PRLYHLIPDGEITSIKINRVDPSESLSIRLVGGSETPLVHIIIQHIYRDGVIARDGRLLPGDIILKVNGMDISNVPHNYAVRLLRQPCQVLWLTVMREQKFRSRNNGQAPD

Binder: TMQMSLKDLL [GLA, P06280]
- pKd (LNX1_1, Q8TBB1; [1]): 3.64
- pKd (MPDZ_10, O75970; [1]): below the threshold
- pKd (ARHGAP21, Q5T5U3; [1]): 3.54
- pKd (MPP2, Q14168; [1]): below the threshold
- pKd (PCLO, Q9Y6V0; [1]): below the threshold
- pKd (GRIP1_7, Q9Y3R0; [1]): below the threshold
- pKd (GRIP2_4, Q9C0E4; [1]): below the threshold
- pKd (MPP7, Q5T2T1; [1]): below the threshold
- pKd (SCRIB_2, Q14160; [1]): below the threshold
- pKd (NHERF4_2, Q86UT5; [1]): below the threshold
- pKd (MAGI2_3, Q86UL8; [1]): below the threshold
- pKd (HTRA4, P83105; [1]): below the threshold
- pKd (DLG1_3, Q12959; [1]): below the threshold
- pKd (MAGI3_2, Q5TCQ9; [1]): below the threshold
- pKd (MPDZ_5, O75970; [1]): below the threshold
- pKd (DLG1_1, Q12959; [1]): below the threshold
- pKd (APBA1_2, Q02410; [1]): 3.53
- pKd (SNTG2, Q9NY99; [1]): below the threshold
- pKd (IL16_1, Q14005; [1]): below the threshold
- pKd (APBA2_2, Q99767; [1]): below the threshold
- pKd (GRIP2_5, Q9C0E4; [1]): 3.51
- pKd (NHERF2_2, Q15599; [1]): 3.62
- pKd (MPP6, Q9NZW5; [1]): below the threshold
- pKd (MAGI2_6, Q86UL8; [1]): below the threshold
- pKd (LAP2, Q96RT1; [1]): below the threshold
- pKd (GRIP2_3, Q9C0E4; [1]): below the threshold

Binder: DEDQHTQITKV [PTEN_Ac, P60484]
- pKd (LNX1_1, Q8TBB1; [2]): 3.61
- pKd (MPDZ_10, O75970; [2]): 4.18
- pKd (ARHGAP21, Q5T5U3; [2]): below the threshold
- pKd (MPP2, Q14168; [2]): below the threshold
- pKd (PCLO, Q9Y6V0; [2]): below the threshold
- pKd (GRIP1_7, Q9Y3R0; [2]): below the threshold
- pKd (GRIP2_4, Q9C0E4; [2]): below the threshold
- pKd (MPP7, Q5T2T1; [2]): below the threshold
- pKd (SCRIB_2, Q14160; [2]): below the threshold
- pKd (NHERF4_2, Q86UT5; [2]): below the threshold
- pKd (MAGI2_3, Q86UL8; [2]): 4.85
- pKd (HTRA4, P83105; [2]): 3.68
- pKd (DLG1_3, Q12959; [2]): below the threshold
- pKd (MAGI3_2, Q5TCQ9; [2]): 4.55
- pKd (MPDZ_5, O75970; [2]): below the threshold
- pKd (DLG1_1, Q12959; [2]): 4.15
- pKd (APBA1_2, Q02410; [2]): 4.26
- pKd (SNTG2, Q9NY99; [2]): 3.78
- pKd (IL16_1, Q14005; [2]): 3.84
- pKd (APBA2_2, Q99767; [2]): below the threshold
- pKd (GRIP2_5, Q9C0E4; [2]): below the threshold
- pKd (NHERF2_2, Q15599; [2]): 3.77
- pKd (MPP6, Q9NZW5; [2]): below the threshold
- pKd (MAGI2_6, Q86UL8; [2]): 4.57
- pKd (LAP2, Q96RT1; [2]): 3.93
- pKd (GRIP2_3, Q9C0E4; [2]): below the threshold

Binder: LETREPTNTL [GRIP1, Q9Y3R0]
- pKd (LNX1_1, Q8TBB1; [1]): below the threshold
- pKd (MPDZ_10, O75970; [1]): below the threshold
- pKd (ARHGAP21, Q5T5U3; [1]): 4.04
- pKd (MPP2, Q14168; [1]): below the threshold
- pKd (PCLO, Q9Y6V0; [1]): below the threshold
- pKd (GRIP1_7, Q9Y3R0; [1]): below the threshold
- pKd (GRIP2_4, Q9C0E4; [1]): below the threshold
- pKd (MPP7, Q5T2T1; [1]): below the threshold
- pKd (SCRIB_2, Q14160; [1]): below the threshold
- pKd (NHERF4_2, Q86UT5; [1]): below the threshold
- pKd (MAGI2_3, Q86UL8; [1]): below the threshold
- pKd (HTRA4, P83105; [1]): below the threshold
- pKd (DLG1_3, Q12959; [1]): below the threshold
- pKd (MAGI3_2, Q5TCQ9; [1]): below the threshold
- pKd (MPDZ_5, O75970; [1]): below the threshold
- pKd (DLG1_1, Q12959; [1]): below the threshold
- pKd (APBA1_2, Q02410; [1]): below the threshold
- pKd (SNTG2, Q9NY99; [1]): below the threshold
- pKd (IL16_1, Q14005; [1]): below the threshold
- pKd (APBA2_2, Q99767; [1]): below the threshold
- pKd (GRIP2_5, Q9C0E4; [1]): below the threshold
- pKd (NHERF2_2, Q15599; [1]): below the threshold
- pKd (MPP6, Q9NZW5; [1]): 3.61
- pKd (MAGI2_6, Q86UL8; [1]): below the threshold
- pKd (LAP2, Q96RT1; [1]): below the threshold
- pKd (GRIP2_3, Q9C0E4; [1]): below the threshold

Binder: RALRASESGI [ADGRE5, P48960]
- pKd (LNX1_1, Q8TBB1; [1]): below the threshold
- pKd (MPDZ_10, O75970; [1]): below the threshold
- pKd (ARHGAP21, Q5T5U3; [1]): 4.03
- pKd (MPP2, Q14168; [1]): below the threshold
- pKd (PCLO, Q9Y6V0; [1]): below the threshold
- pKd (GRIP1_7, Q9Y3R0; [1]): below the threshold
- pKd (GRIP2_4, Q9C0E4; [1]): below the threshold
- pKd (MPP7, Q5T2T1; [1]): below the threshold
- pKd (SCRIB_2, Q14160; [1]): below the threshold
- pKd (NHERF4_2, Q86UT5; [1]): below the threshold
- pKd (MAGI2_3, Q86UL8; [1]): below the threshold
- pKd (HTRA4, P83105; [1]): 3.62
- pKd (DLG1_3, Q12959; [1]): below the threshold
- pKd (MAGI3_2, Q5TCQ9; [1]): below the threshold
- pKd (MPDZ_5, O75970; [1]): below the threshold
- pKd (DLG1_1, Q12959; [1]): below the threshold
- pKd (APBA1_2, Q02410; [1]): below the threshold
- pKd (SNTG2, Q9NY99; [1]): below the threshold
- pKd (IL16_1, Q14005; [1]): below the threshold
- pKd (APBA2_2, Q99767; [1]): below the threshold
- pKd (GRIP2_5, Q9C0E4; [1]): below the threshold
- pKd (NHERF2_2, Q15599; [1]): below the threshold
- pKd (MPP6, Q9NZW5; [1]): 3.59
- pKd (MAGI2_6, Q86UL8; [1]): below the threshold
- pKd (LAP2, Q96RT1; [1]): below the threshold
- pKd (GRIP2_3, Q9C0E4; [1]): below the threshold
